The target in assay [1] is T1, biotinylated Aβ40 peptide (human, C-terminal biotin group attached via a lysine spacer).
T1 construct: Synthetic peptide (Peptide Speciality Laboratory) with a C-terminal biotin on a lysine spacer; used in the capture ELISAs
The assay can be described thus: capture ELISA: 1 µM Lcn2 protein captured via Strep-tag II on coated StrepMAB-Immo, biotinylated target titrated, ExtrAvidin/AP + pNPP. The protocol: (§1) FIG. 5 depicts the binding activity of the Lcn2 muteins H1-G1, S1-A4, and US7 in capture ELISAs with different biotinylated Aβ targets. StrepMAB-Immo at 10 μg/ml was immobilized on microtitre plates and employed for capturing of 1 JAM Lcn2 muteins via the Strep-tag H. In figures A to C the binding of the Lcn2 muteins S1-A4 and US7 to (A) biotinylated Aβ40, (B) biotinylated Trx-Aβ28, and (C) biotinylated MBP-Aβ40 are shown. Binding was detected by incubation with ExtrAvidin/AP and a subsequent chromogenic reaction with pNPP. Ovalbumin (Ova), thioredoxin (Trx), and maltose binding protein (MBP) were used as negative controls. Additionally, binding of wild-type (wt) lipocalin was tested. The data were fitted to a monovalent binding model.
(§2) For selective capturing of the Lcn2 muteins carrying the C-terminal Strep-tag II (Schmidt and Skerra (2007) Nat. Protoc. 2, 1528-1535), a 96-well MaxiSorp polystyrene microtitre plate (Nunc, Langenselbold, Germany) was coated with 10 μg/mL StrepMAB-Immo (IBA, Göttingen, Germany) in PBS over night at 4° C. and blocked with 3% (w/v) BSA in PBS/T at room temperature for 1 h. After 3 washing steps with PBS/T, 50 μL of a 1 μM solution of the purified Lcn2 muteins from Example 7 were applied to all wells for 1 h. After washing, 50 μL of a dilution series of the biotinylated targets Aβ40, MBP-Aβ40 or Trx-Aβ28 from Example 2 were added and incubated for 1 h whereby the biotinylated forms of Ova, MBP and Trx from Example 2 served as negative control proteins. The wells were washed again and bound conjugate was detected with 50 μL of ExtrAvidin/AP conjugate (Sigma-Aldrich, Steinheim, Germany) diluted 1:5000 in PBS/T for 1 h, followed by signal development in the presence of 100 μL 0.5 mg/mL p-nitrophenyl phosphate (AppliChem, Darmstadt, Germany) in 100 mM Tris/HCl, pH 8.8, 100 mM NaCl, 5 mM MgCl₂.

Assay [2] deals with T2, Trx-Aβ28 fusion protein (Escherichia coli (strain K12), UniProt P0AA25 1-76 = thioredoxin, Biotin-labelled through an NHS ester (2:1) in the capture and competitive ELISAs; unlabeled in the direct ELISA and as competitor.).
T2 construct: the entry may be a nucleic acid; also called TrxAbeta28H6
Described as above. The protocol:
as §1, §2

The target in a further assay is T3, ovalbumin (UniProt P01012 2-386).
T3 sequence (looked up): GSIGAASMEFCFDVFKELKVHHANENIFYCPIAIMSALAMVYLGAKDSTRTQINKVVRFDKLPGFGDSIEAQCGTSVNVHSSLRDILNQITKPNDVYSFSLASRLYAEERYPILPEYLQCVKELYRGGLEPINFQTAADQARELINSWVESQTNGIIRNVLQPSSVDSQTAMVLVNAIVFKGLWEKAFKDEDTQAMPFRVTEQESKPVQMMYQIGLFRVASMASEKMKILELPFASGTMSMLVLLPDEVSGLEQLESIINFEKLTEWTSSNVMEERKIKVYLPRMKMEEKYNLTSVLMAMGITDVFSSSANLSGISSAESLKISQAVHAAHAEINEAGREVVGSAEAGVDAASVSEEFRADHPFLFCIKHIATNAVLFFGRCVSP
Described as above. The method, then: as §1, §2

Assay [3] deals with T4, Aβ40 peptide, non-labeled (human).
T4 construct: Non-labeled synthetic peptide (W. M. Keck Laboratory); also called Abeta40; amyloid beta peptide
T4 sequence (peptide, as listed by the source): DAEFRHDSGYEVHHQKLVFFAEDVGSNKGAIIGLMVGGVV
The assay can be described thus: SPOT membrane of overlapping Aβ40 peptides.

The target in assay [4] is T5, recombinant human fibronectin fragment FN7B8 (human, UniProt P02751 1173-1448).
T5 construct: no separate number is printed for the protein, so the entry may be a nucleic acid
T5 sequence (P02751 other isoform, or with tags, fused parts or gaps limits assumed): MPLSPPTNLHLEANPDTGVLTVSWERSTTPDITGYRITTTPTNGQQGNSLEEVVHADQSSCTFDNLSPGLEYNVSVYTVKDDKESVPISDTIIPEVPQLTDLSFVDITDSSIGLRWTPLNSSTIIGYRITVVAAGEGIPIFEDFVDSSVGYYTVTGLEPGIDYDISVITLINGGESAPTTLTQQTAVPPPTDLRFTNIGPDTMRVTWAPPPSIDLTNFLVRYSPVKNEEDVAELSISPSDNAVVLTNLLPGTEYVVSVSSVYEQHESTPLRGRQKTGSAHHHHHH
The assay can be described thus: ELISA: FN7B8 coated, Lcn2 protein titrated, detected via Strep-tag II with Streptavidin-alkaline phosphatase + pNPP. The protocol: FIG. 12 depicts binding activity in the ELISA. A microliter plate was coated with the purified proteins FN7B8 and FN789 and incubated with a dilution series of the selected Lcn2 muteins, followed by detection with Streptavidin-alkaline-phosphatase conjugate and pNPP substrate.
To adsorb FN7B8 or FN789 onto the surface of a 96-well Nunc Maxisorp plate (Thermo Fisher Scientific, Langenselbold, Germany) 50 μl of a 100 μg/ml protein solution in TBS/E was added per well and incubated at room temperature for 2 h. Additionally, to include control proteins, blank wells were exposed to 120 μl 2% (w/v) BSA (AppliChem, Darmstadt, Germany) in TBS/ET. […] The wells were washed again and bound Lcn2 muteins were detected with 50 μL of Streptavidin-alkaline phosphatase conjugate (GE Healthcare, Munich, Germany) diluted 1:1500 in TBS/T for 1 h, followed by signal development in the presence of 50 μl 0.5 mg/ml p-nitrophenyl phosphate in 100 mM Tris/HCl, 100 mM NaCl, 5 mM MgCl₂, pH 8.8. The time course of absorption AA/At at 405 nm was measured in a SpectraMax 250 reader (Molecular Devices, Sunnyvale, Calif.) and the data were fitted with KaleidaGraph software (Synergy software, Reading, Pa.) to the equation
In general terms: ELISA stands for enzyme-linked immunosorbent assay.

The target of assay [5] is T2, Trx-Aβ28 fusion protein. The assay can be described thus: competitive ELISA: mutein captured, 40 nM biotinylated Trx-Aβ28 as tracer, unlabeled Trx-Aβ28 varied as competitor. The method, then: Alternatively, a “competitive” ELISA was performed in a similar manner as the “capture” ELISA described above. Again, after immobilizing StrepMAB-Immo and washing, 50 μL of a 1 μM solution of the purified Lcn2 mutein from Example 7 was applied to all wells for 1 h. After washing, the biotinylated target Trx-Aβ28 from Example 2 was applied at a fixed concentration of 5 nM (for S1-A4) or 40 nM (for US7) in the presence of varying concentrations of the free non-labeled Trx-Aβ28 target as competitor. Starting with a 100-fold excess, the competitor concentration was decreased by the factor 3 in each step. In this case, the data were fitted to the sigmoidal equation

For assay [6], the target named is T4, Aβ40 peptide, non-labeled. The assay can be described thus: SPOT membrane of overlapping Aβ40 peptides, 100 nM mutein.
In assay [7] the target is T6, MBP-Aβ40 fusion protein.
T6 construct: the entry may be a nucleic acid; Biotin-labelled in the capture ELISA, unlabeled in the direct ELISA and SPR; also called MBP-Abeta40
The assay can be described thus: direct ELISA: MBP-Aβ40 coated, mutein titrated, detected via Strep-tag II. The method, then: (§3) The Aβ targets Trx-Aβ28 and MBP-Aβ40 as well as the control protein maltose binding protein (MBP) were immobilized at 2 μM in PBS over night. Bound Lcn2 muteins were detected via their Strep-tag II using Streptavidin/AP followed by a chromogenic reaction with pNPP. As a control, the binding of wild-type (wt) lipocalin was tested. The data were fitted to a monovalent binding model.
(§4) Alternatively, for a “direct” ELISA, 2 μM unlabeled Aβ40 target from Example 2 was adsorbed onto a 96-well MaxiSorp polystyrene microliter plate (Nunc, Langenselbold, Germany) and incubated with the purified Lcn2 mutein, which was detected via the Strep-tag II using a 1:1500 dilution of Streptavidin/AP conjugate (GE Healthcare UK Ltd, Buckinghamshire, UK). As a control, 2 μM MBP from Example 2 was adsorbed onto the ELISA plate. Absorption at 405 nm was measured in a SpectraMax 250 reader (Molecular Devices, Sunnyvale, USA).

Assay [8] concerns the target T6, MBP-Aβ40 fusion protein. The assay can be described thus: SPR (Biacore), MBP-Aβ40 amine-coupled (1455 RU), mutein as analyte. The protocol: (§5) FIG. 8 depicts the kinetic real time analysis of Lcn2 muteins S1-A4 (A) and US7 (B) measured on a Biacore instrument at a flow rate of 10 μl/min. The MBP-Aβ40 fusion protein was coupled via amine chemistry on a CMD 200I chip (ΔRU=1455) and each of the purified Lcn2 muteins was applied in a series at different concentrations. The measured signal is shown as a grey line whereas the curve fit is depicted as a black line in each case.
(§6) Real time analysis of Lcn2 muteins was performed on a Biacore X system (Biacore, Uppsala, Sweden) using PBS/T (PBS containing 0.005% (v/v) Tween 20) as running buffer. A 50 μg/mL solution of MBP-Aβ40 from Example 2 in 10 mM Na-acetate, pH 4.5 was immobilized onto a […] chip (Xantec, Düsseldorf, Germany) using standard amine coupling chemistry, resulting in a ligand density of 1455 resonance units (RU). […] The sensorgrams were corrected by subtraction of the corresponding signals measured for the control channel, which had been activated and blocked with ethanolamine. […] During this step the kₒₙ and koff rates were fitted globally, while the maximum response difference Rₘₐₓ was fitted locally for each curve.
On the technique in general: SPR reads the build-up and loss of mass on a sensor chip optically.

The target of assay [9] is T6, MBP-Aβ40 fusion protein. The assay can be described thus: SPR (Biacore), MBP-Aβ40 amine-coupled; same experiment as the 1st table, row 20, column 3, printed with more digits. The method, then:
as §5, §6

A further assay has as its target T7, central peptide Aβ16-27.
T7 construct: Bought from the Peptide Speciality Laboratory
T7 peptide: KLVFFAEDVGSN
The assay can be described thus: capture ELISA: mutein captured, Aβ16-27 titrated.

The target of assay [10] is T2, Trx-Aβ28 fusion protein. The assay can be described thus: capture ELISA: mutein captured, biotinylated Trx-Aβ28 titrated. The method, then:
as §1, §2

The target of assay [11] is T6, MBP-Aβ40 fusion protein. The assay can be described thus: SPR (Biacore X), MBP-Aβ40 amine-coupled, mutein as analyte. The protocol:
as §6

The target in assay [12] is T1, biotinylated Aβ40 peptide. The assay can be described thus: capture ELISA: mutein captured via Strep-tag II on StrepMAB-Immo, biotinylated Aβ40 titrated. The method, then: as §1, §2
Assay [13] addresses T2, Trx-Aβ28 fusion protein. The assay can be described thus: direct ELISA: Trx-Aβ28 coated, mutein titrated, detected via Strep-tag II. The protocol: as §3, §4
Assay [14] addresses T6, MBP-Aβ40 fusion protein. The assay can be described thus: capture ELISA: mutein captured, biotinylated MBP-Aβ40 titrated. The protocol:
as §1
For selective capturing of the Lcn2 muteins carrying the C-terminal Strep-tag II (Schmidt and Skerra (2007) Nat. Protoc. 2, 1528-1535), a 96-well MaxiSorp polystyrene microtitre plate (Nunc, Langenselbold, Germany) was coated with 10 μg/mL StrepMAB-Immo (IBA, Göttingen, Germany) in PBS over night at 4° C. and blocked with 3% (w/v) BSA in PBS/T at room temperature for 1 h. After 3 washing steps with PBS/T, 50 μL of a 1 μM solution of the purified Lcn2 muteins from Example 7 were applied to all wells for 1 h. […]

A word on the Kd: it is the free concentration of one partner at which half of the binding sites on the other are occupied at equilibrium, for simple one-to-one binding. A word on the koff: it is the first-order rate constant of dissociation. The low end stands for slow dissociation, the high end for fast dissociation. One may read the kon as the second-order rate constant of association. Read a high kon as faster complex formation.

T1 sequence (peptide, as listed by the source): as the sequence (peptide, as listed by the source) above

B1: recombinant wild-type human Lipocalin 2 (other)
chain: QDSTSDLIPAPPLSKVPLQQNFQDNQFQGKWYVVGLAGNAILREDKDPQKMYATIYELKEDKSYNVTSVLFRKKKCDYWIRTFVPGSQPGEFTLGNIKSYPGLTSYLVRVVSTNYNQHAMVFFKKVSQNREYFKITLYGRTKELTSELKENFIRFSKSLGLPENHIVFPVPIDQCIDG
notes: also called wt Lcn2; wild type Lcn2
As for B1, the binding result is given as “no binding” in assay [1]; “no binding” in the assay with Trx-Aβ28 fusion protein [2]; “no binding (tested: 250 nM)” with ovalbumin; “no binding (tested: 100 nM)” in assay [3]; “no binding (tested: 250 nM)” in assay [4].

B2: Lcn2 mutein US7 (designed binder)
chain: QDSTSDLIPAPPLSKVPLQQNFQDNQFHGKWYVVGVAGNKSLREDKDPWKMYATIYELKEDKSYNVTSVGFGTKKCHYKIRTFVPGSQPGEFTLGRIKSRPGRTSALVRVVSTNYNQHAMVFFKVVQQNRESFNITLYGRTKELTSELKENFIRFSKSLGLPENHIVFPVPIDQCIDG
Consider B2, for which the Kd in the assay with Trx-Aβ28 fusion protein [5] was 76.9 nM; in the assay with MBP-Aβ40 fusion protein [7] it was 49.7 nM; with MBP-Aβ40 fusion protein [9], 1.25 nM; in the assay with central peptide Aβ16-27, 2.1 nM; with Trx-Aβ28 fusion protein [10] it was 2.4 nM; with MBP-Aβ40 fusion protein [11], 1.3 nM. The results for the Kd (in assay [12]; with Trx-Aβ28 fusion protein [13]; with MBP-Aβ40 fusion protein [14]) were 6.8 nM, 9.6 nM and 11.4 nM, respectively. The binding result is “binds” in assay [6] and “no binding (tested: 250 nM)” in the assay with ovalbumin. In addition, in the assay with MBP-Aβ40 fusion protein [8], the koff was 0.000252 s⁻¹. Besides, in the assay with MBP-Aβ40 fusion protein [8], the kon came to 202000 M⁻¹ s⁻¹.

Source of the values: patent US20130079286A1 (Pieris, published 2013).
